From article PMC4787810 (Nucleic Acids Research, 2015)
Read-outs that look alike come from different tables or passages of the source.

Columns and labels:
[1] = target: the molecule itself; experiment: SEC-MALS
[2] = target: the molecule itself; experiment: cross-linking
[3] = target: T1, HpDnaB replicative helicase;HpDnaG helicase-binding domain (HpDnaGHBD) (Helicobacter pylori;Helicobacter pylori …, UniProt O25916;P56064 1-488;415-559, |); experiment: fluorescence anisotropy
T1 sequence 1: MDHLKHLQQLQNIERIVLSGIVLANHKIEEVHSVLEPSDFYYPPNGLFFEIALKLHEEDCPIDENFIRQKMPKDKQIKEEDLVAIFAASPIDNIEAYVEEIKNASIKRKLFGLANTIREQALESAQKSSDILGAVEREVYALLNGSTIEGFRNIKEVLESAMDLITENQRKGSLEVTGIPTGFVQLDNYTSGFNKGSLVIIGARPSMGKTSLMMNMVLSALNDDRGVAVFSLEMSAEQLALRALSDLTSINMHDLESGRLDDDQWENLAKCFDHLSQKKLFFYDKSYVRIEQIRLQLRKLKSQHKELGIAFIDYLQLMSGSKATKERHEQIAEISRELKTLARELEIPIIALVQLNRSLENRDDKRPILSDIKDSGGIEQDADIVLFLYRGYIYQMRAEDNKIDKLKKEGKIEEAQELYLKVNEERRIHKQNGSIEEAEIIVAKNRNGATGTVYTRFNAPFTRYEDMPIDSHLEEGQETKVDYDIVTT
T1 sequence 2: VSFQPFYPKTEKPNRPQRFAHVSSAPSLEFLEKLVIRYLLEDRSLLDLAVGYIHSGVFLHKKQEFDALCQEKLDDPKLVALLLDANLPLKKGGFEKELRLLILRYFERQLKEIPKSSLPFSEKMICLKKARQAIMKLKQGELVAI

[4] = target: T2, HpDnaB replicative helicase (Helicobacter pylori, UniProt O25916 1-488); experiment: fluorescence anisotropy
T2 sequence: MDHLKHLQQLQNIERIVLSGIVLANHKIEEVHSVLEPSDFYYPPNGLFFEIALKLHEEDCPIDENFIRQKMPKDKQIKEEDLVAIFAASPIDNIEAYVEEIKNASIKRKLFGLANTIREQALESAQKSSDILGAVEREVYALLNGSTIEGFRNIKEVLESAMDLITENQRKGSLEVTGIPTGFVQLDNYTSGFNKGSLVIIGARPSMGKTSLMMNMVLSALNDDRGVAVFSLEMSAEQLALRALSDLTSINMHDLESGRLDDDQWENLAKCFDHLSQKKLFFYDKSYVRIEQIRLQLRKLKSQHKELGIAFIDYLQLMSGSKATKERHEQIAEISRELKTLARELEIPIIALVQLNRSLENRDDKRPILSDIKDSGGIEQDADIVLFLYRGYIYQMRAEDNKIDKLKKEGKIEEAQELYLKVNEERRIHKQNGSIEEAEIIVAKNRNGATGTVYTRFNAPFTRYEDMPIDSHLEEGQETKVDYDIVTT

[5] = target: T1, HpDnaB replicative helicase;HpDnaG …; experiment: fluorescence anisotropy; remark: listed apart in the source
[6] = target: T2, HpDnaB replicative helicase; experiment: fluorescence anisotropy; remark: listed apart in the source
[7] = target: T2, HpDnaB replicative helicase; experiment: fluorescence anisotropy; remark: listed apart in the source
[8] = target: T2, HpDnaB replicative helicase; experiment: fluorescence anisotropy; remark: listed apart in the source

B1: HpDnaB^Δ9 (N-terminal deletion mutant starting at residue 10) (domain or fragment, Helicobacter pylori, UniProt O25916 10-488, looked up)
chain: LQNIERIVLSGIVLANHKIEEVHSVLEPSDFYYPPNGLFFEIALKLHEEDCPIDENFIRQKMPKDKQIKEEDLVAIFAASPIDNIEAYVEEIKNASIKRKLFGLANTIREQALESAQKSSDILGAVEREVYALLNGSTIEGFRNIKEVLESAMDLITENQRKGSLEVTGIPTGFVQLDNYTSGFNKGSLVIIGARPSMGKTSLMMNMVLSALNDDRGVAVFSLEMSAEQLALRALSDLTSINMHDLESGRLDDDQWENLAKCFDHLSQKKLFFYDKSYVRIEQIRLQLRKLKSQHKELGIAFIDYLQLMSGSKATKERHEQIAEISRELKTLARELEIPIIALVQLNRSLENRDDKRPILSDIKDSGGIEQDADIVLFLYRGYIYQMRAEDNKIDKLKKEGKIEEAQELYLKVNEERRIHKQNGSIEEAEIIVAKNRNGATGTVYTRFNAPFTRYEDMPIDSHLEEGQETKVDYDIVTT
B1 was tested, and the “stoichiometry N” value [1] was about 6 and the “stoichiometry N” value [2] was 6.

B2: HpDnaB^L4A (enzyme, Helicobacter pylori, UniProt O25916 1-488, looked up)
chain: MDHAKHLQQLQNIERIVLSGIVLANHKIEEVHSVLEPSDFYYPPNGLFFEIALKLHEEDCPIDENFIRQKMPKDKQIKEEDLVAIFAASPIDNIEAYVEEIKNASIKRKLFGLANTIREQALESAQKSSDILGAVEREVYALLNGSTIEGFRNIKEVLESAMDLITENQRKGSLEVTGIPTGFVQLDNYTSGFNKGSLVIIGARPSMGKTSLMMNMVLSALNDDRGVAVFSLEMSAEQLALRALSDLTSINMHDLESGRLDDDQWENLAKCFDHLSQKKLFFYDKSYVRIEQIRLQLRKLKSQHKELGIAFIDYLQLMSGSKATKERHEQIAEISRELKTLARELEIPIIALVQLNRSLENRDDKRPILSDIKDSGGIEQDADIVLFLYRGYIYQMRAEDNKIDKLKKEGKIEEAQELYLKVNEERRIHKQNGSIEEAEIIVAKNRNGATGTVYTRFNAPFTRYEDMPIDSHLEEGQETKVDYDIVTT
B2: binds [1].

B3: HpDnaB^E80A (enzyme, Helicobacter pylori, UniProt O25916 1-488, looked up)
chain: MDHLKHLQQLQNIERIVLSGIVLANHKIEEVHSVLEPSDFYYPPNGLFFEIALKLHEEDCPIDENFIRQKMPKDKQIKEADLVAIFAASPIDNIEAYVEEIKNASIKRKLFGLANTIREQALESAQKSSDILGAVEREVYALLNGSTIEGFRNIKEVLESAMDLITENQRKGSLEVTGIPTGFVQLDNYTSGFNKGSLVIIGARPSMGKTSLMMNMVLSALNDDRGVAVFSLEMSAEQLALRALSDLTSINMHDLESGRLDDDQWENLAKCFDHLSQKKLFFYDKSYVRIEQIRLQLRKLKSQHKELGIAFIDYLQLMSGSKATKERHEQIAEISRELKTLARELEIPIIALVQLNRSLENRDDKRPILSDIKDSGGIEQDADIVLFLYRGYIYQMRAEDNKIDKLKKEGKIEEAQELYLKVNEERRIHKQNGSIEEAEIIVAKNRNGATGTVYTRFNAPFTRYEDMPIDSHLEEGQETKVDYDIVTT
B3: binds [1].

B4: HpDnaB^Q8A (enzyme, Helicobacter pylori, UniProt O25916 1-488, looked up)
chain: MDHLKHLAQLQNIERIVLSGIVLANHKIEEVHSVLEPSDFYYPPNGLFFEIALKLHEEDCPIDENFIRQKMPKDKQIKEEDLVAIFAASPIDNIEAYVEEIKNASIKRKLFGLANTIREQALESAQKSSDILGAVEREVYALLNGSTIEGFRNIKEVLESAMDLITENQRKGSLEVTGIPTGFVQLDNYTSGFNKGSLVIIGARPSMGKTSLMMNMVLSALNDDRGVAVFSLEMSAEQLALRALSDLTSINMHDLESGRLDDDQWENLAKCFDHLSQKKLFFYDKSYVRIEQIRLQLRKLKSQHKELGIAFIDYLQLMSGSKATKERHEQIAEISRELKTLARELEIPIIALVQLNRSLENRDDKRPILSDIKDSGGIEQDADIVLFLYRGYIYQMRAEDNKIDKLKKEGKIEEAQELYLKVNEERRIHKQNGSIEEAEIIVAKNRNGATGTVYTRFNAPFTRYEDMPIDSHLEEGQETKVDYDIVTT
With B4 the “stoichiometry N” value [2] was 6.

TTTTTTTTTTTTTTTTTTTT (ssDNA) [20dT] was tested, and the Kd [3] was 8.3 ± 0.6 nM, the Kd [4] was 15 ± 1 nM and the Kd [5] was 1 ± 0.1 nM. For the same binder, the Kd [6] was 3.1 ± 0.1 nM.

Work on TTTTTTTTTTTTTTTTTTTTTTTTTTTTTTTTTTTTTTTTTTTTTTTTTT (ssDNA) [50dT] yielded a Kd [7] of 1.8 ± 0.2 nM and a Kd [8] of 70 ± 6 nM.
